According to IntAct's records for PubMed 31116475:

Biological target: aimp2_crigr AIMP2 (UniProt Q9WVM7)
Sequence (Q9WVM7 whole entry): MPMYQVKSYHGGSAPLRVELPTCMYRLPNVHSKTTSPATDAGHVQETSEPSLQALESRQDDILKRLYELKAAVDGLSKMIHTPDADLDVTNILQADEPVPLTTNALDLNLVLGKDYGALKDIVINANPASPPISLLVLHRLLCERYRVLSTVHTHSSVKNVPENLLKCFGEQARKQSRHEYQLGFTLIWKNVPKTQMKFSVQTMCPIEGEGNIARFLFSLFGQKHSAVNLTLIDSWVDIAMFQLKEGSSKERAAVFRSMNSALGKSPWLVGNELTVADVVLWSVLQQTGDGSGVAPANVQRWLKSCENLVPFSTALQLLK

Sequence of Lysine--tRNA ligase (Cricetulus griseus (Chinese hamster)), P37879 P200L (P37879 whole entry P200L): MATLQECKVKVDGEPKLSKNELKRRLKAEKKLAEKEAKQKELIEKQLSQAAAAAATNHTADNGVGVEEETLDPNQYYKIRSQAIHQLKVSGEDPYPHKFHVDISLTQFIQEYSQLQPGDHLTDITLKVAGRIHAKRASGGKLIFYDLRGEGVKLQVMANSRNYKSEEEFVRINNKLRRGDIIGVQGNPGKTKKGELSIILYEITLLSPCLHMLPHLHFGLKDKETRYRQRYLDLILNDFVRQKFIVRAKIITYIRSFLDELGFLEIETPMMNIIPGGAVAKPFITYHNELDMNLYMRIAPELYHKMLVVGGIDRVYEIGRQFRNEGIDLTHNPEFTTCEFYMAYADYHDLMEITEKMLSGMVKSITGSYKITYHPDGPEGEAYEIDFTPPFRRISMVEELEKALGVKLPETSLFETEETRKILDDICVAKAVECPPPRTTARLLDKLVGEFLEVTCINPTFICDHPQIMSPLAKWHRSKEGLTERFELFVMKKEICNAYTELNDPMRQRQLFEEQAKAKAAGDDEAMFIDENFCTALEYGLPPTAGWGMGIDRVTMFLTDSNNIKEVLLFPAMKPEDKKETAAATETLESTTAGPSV
Sequence of Lysine--tRNA ligase (Cricetulus griseus (Chinese hamster)), P37879 F263V (P37879 whole entry F263V): as the sequence (P37879 whole entry P200L) above, with L200P, F263V counted along it

Substance | effect of a mutation on the interaction
Lysine--tRNA ligase (Cricetulus griseus (Chinese hamster)), P37879 F263V | decreasing interaction strength
Lysine--tRNA ligase (Cricetulus griseus (Chinese hamster)), P37879 P200L | decreasing interaction strength
